# According to US20140199714A1, “METHOD FOR DETECTING CANCER CELLS METASTASIZING INTO SENTINEL LYMPH NODE” (SHINSHU UNIVERSITY, priority 2008, published 2014):
# B1: CCL1: chemokine (protein, UniProt P22362 24-96, looked up)
# C-C motif chemokine 1: KSMQVPFSRCCFSFAEQEIPLRAILCYRNTSSICSNEGLIFKLKRGKEACALDTVGWVQRHRKMLRHCPSKRK
# B2: CCL21: chemokine (protein, UniProt O00585 24-134, looked up)
# C-C motif chemokine 21: SDGGAQDCCLKYSQRKIPAKVVRSYRKQEPSLGCSIPAILFLPRKRSQAELCADPKELWVQQLMQHLDKTPSPQKPAQGCRKDRGASKTGKKGKGSKGCKRTERSQTPKGP
# B3: CCL12: chemokine (protein, UniProt Q62401 23-104, looked up)
# C-C motif chemokine 12: GPDAVSTPVTCCYNVVKQKIHVRKLKSYRRITSSQCPREAVIFRTILDKEICADPKEKWVKNSINHLDKTSQTFILEPSCLG
# B4: VEGF-C: growth factor; lymphangiogenic factor (protein, UniProt P49767 112-227, looked up)
# Vascular endothelial growth …: AHYNTEILKSIDNEWRKTQCMPREVCIDVGKEFGVATNTFFKPPCVSVYRCGGCCNSEGLQCMNTSTSYLSKTLFEITVPLSQGPKPVTISFANHTSCRCMSKLDVYRQVHSIIRR
# Tests used:
# Format in all cases: cell-based
# [1] = test system: ICAM-1 on human LECs; assay: Immunohistochemical expression of ICAM-1 on cultured human LECs; settings: 48 hrs. simultaneous treatment with 10^−7 or 10^−6M antagonist; n=5
# Protocol: (§1) Using an indirect immunohistochemical technique, the inventors examined the effects of the supernatants of culture medium of two kinds of carcinoma cells, MDA-MB-231 and MCF-7, on the expression of adhesion molecules such as E-selectin, P-selectin, vascular cell adhesion molecule (VCAM)-1, and intercellular adhesion molecule (ICAM)-1 on the human LECs. The carcinoma cells were plated in DMEM/F12 with 10% FBS, which was replaced the following day with DMEM/F12 with 3% FBS, and then collected after overnight culture. The collected solution was centrifuged at 2,000 rpm for 5 min. at 4° C. To examine the effects of the supernatants on the expression of the adhesion molecules on the human LECs, 1 mL of each collected solution was added to starvation culture medium, EBM-2 with 3% FBS of the human LECs, and then stimulated for 48 hrs. on the cells. In some experiments, the supernatant solutions at different concentrations (1/100 or 1/10,000 dilution) were constructed with appropriate volumes of DMEM/F12 with 3% FBS.
# Indirect immunohistochemical studies were performed on the cultured LECs seeded or glass slides coated with type I collagen, and then the cells were fixed with 3.3% formalin in phosphate-buffered saline solution (PBS), for 20 min. at room temperature. […]
# In some experiments, the effects of 10 ng/mL CCL2 on the immunohistochemical expression of ICAM-1 on the human LECs were also evaluated using the same procedure as that mentioned above after overnight neutralization of CCL2 in the starvation culture medium with a CCL2 specific antibody (1.0 μg/mL). […]
# To quantitatively examine the immunohistochemical data concerning the expression of ICAM-1 on the human LECs, the high-resolution digital microphotographs were processed using the SCION IMAGE analysis program. […]
# [2] = test system: attachment of carcinoma cells to human LECs; assay: In vitro human LEC attachment assay (ATP or MDA-MB-231 supernatant stimulation); settings: p<0.01, n=5
# Protocol: The human LECs were plated to form a monolayer on type I collagen-coated 35 mm plates and incubated to confluence at 37° C. in 5% O2, 5% CO2, and 90% N2. The LECs were kept in serum-starved medium of EBM-2 with 3% FBS. Selected plates were treated with 10^−7M ATP or the supernatant of culture medium of MDA-MB-231 cells for 48 hrs. In some experiments, 10^−6M suramin was simultaneously added to the plates during 48 hrs. treatment with 10^−7M ATP or the culture medium supernatant of MDA-MB-231 cells.
# In some experiments, the plates were also treated with anti-human-ICAM-1 antibody (available from R&D Systems, US) for 30 min after 48 hrs. treatment with the culture medium supernatant of MDA-MB-231 or 10^−7M ATP. Breast carcinoma cells stained with PKH26 fluorescent dye (available from SIGMA, US) were then plated at 5×10^4 cells per plate and incubated for 30 min. at 37° C. Unbound cells were removed by aspiration and the plates washed with DMEM/F12 three times. Attachment was quantitated by counting cells under ×100 magnification using a microscope (available from Leica, Switzerland).
# [3] = test system: ICAM-1 on human LECs; assay: Immunohistochemical expression of ICAM-1 on cultured human LECs; settings: for staining with ICAM-1 on human LECs: 48 hrs. treatment with 100 ng/mL IL-6, 100 ng/mL VEGF-A, or 500 ng/mL VEGF-C; for expression of ICAM-1 on human LECs: 18 hrs.-stimulation with 10 ng/mL chemokine
# [4] = test system: F-actin in LECs derived from human collecting lymph vessel; assay: Staining of cytoskeletal protein F-actin in human LECs; settings: 10 ng/mL TNF-α; 1 ng/mL and 10 ng/mL IL-1β; 2 hrs. at 37° C.; vs negative control
# Protocol: LECs derived from human collecting lymph vessel, which were transplanted into a culture system, were plated on glass slide, and repeatedly subcultured to confluence. Stimulating factors of 10 ng/mL of tumor necrosis factor-α (TNF-α) of Catalog No. T-0157 (available from SIGMA, US), 1 ng/mL and 10 ng/mL of interleukin-1β (IL-1β) of Catalog No. 200-01B (available from PeproTech, US) were respectively dissolved in EBM-2 containing 3% FBS of Catalog No. CC-3156 (available from Sankyo Junyaku Co., Ltd., Japan) and added onto the cells, and then the cells were incubated for 2 hrs. at 37° C. They were fixed with 3.7% formalin. They were washed with PBS solution, and then still stood in PBS solution containing 0.1% TRITON X-100 of Catalog No. X-100 (available from SIGMA, US) for 5 min. Additionally they were washed with PBS solution, and then phalloidin-FITC antibody of Catalog No. P-5282 (available from SIGMA, US) diluted 500 times with PBS solution containing 0.1% BSA was added thereto. They were still stood for 2 hrs. at room temperature. After they were washed with PBS solution, and mounted in MOBI GLOW MOUNTING MEDIUM. Also negative control was similarly prepared except for using no stimulating factor. […] The LECs of the negative control without the stimulating factor indicate obscure green fluorescence, and there were few expression of F-actin.
# [5] = test system: P-selectin on human LECs; assay: Immunohistochemical expression of P-selectin on cultured human LECs; settings: 48 hrs. treatment with 100 ng/mL IL-6, 100 ng/mL VEGF-A, or 500 ng/mL VEGF-C
# Protocol: as §1
# (§2) Indirect immunohistochemical studies were performed on the cultured LECs seeded or glass slides coated with type I collagen, and then the cells were fixed with 3.3% formalin in phosphate-buffered saline solution (PBS), for 20 min. at room temperature. The cells were washed three times with PBS, and then incubated overnight at 4° C. with primary polyclonal human antisera to E-selectin/CD62E (dilution 10 μg/mL, available from R&D Systems, US), P-selectin/CD62P (dilution 10 μg/mL, available from R&D Systems, US), VCAM-1/CD106 (dilution 10 μg/mL, available from R&D Systems, US), and ICAM-1/CD54 (dilution 10 μg/mL, available from R&D Systems, US).
# Before primary staining, the cultured cells were permeabilized with 0.1% TRITON-X. After washing three times in PBS, the cells were incubated for 1 hr. at room temperature with 1:100 diluted ALEXA FLUOR 488 donkey anti-mouse IgG (available from Invitrogen, US). […]
# [6] = test system: E-selectin on human LECs; assay: Immunohistochemical expression of E-selectin on cultured human LECs
# Protocol: as §1, §2
# (§3) Before primary staining, the cultured cells were permeabilized with 0.1% TRITON-X. After washing three times in PBS, the cells were incubated for 1 hr. at room temperature with 1:100 diluted ALEXA FLUOR 488 donkey anti-mouse IgG (available from Invitrogen, US). The nuclei of cultured cells were counter-stained and mounted with PROLONG GOLD antifade reagent with 4′-6-diamidine-2-phenylindole (DAPI) (available from Molecular Probes, US), examined by a fluorescent microscope (Leica, Switzerland), and photographed.
# (§4) Immunohistochemistry was performed on the cultured human LECs or the fresh-frozen SLNs isolated from the breast cancer patients. In brief, the cultured LECs were fixed with 10% formalin in the phosphate-buffered saline solution (PBS) at room temperature. The cells were incubated for 4 hrs. at room temperature with primary polyclonal human antisera platelet-endothelial cell adhesion molecule (PECAM)-1 (dilution 1:100, available from BD Biosciences, US), lymphatic vessel endothelial hyaluronan receptor (LYVE)-1 (dilution 1:50, available from RELIATech, Germany), PROX-1 (dilution 1:50, available from AngioBio, US), podoplanin (dilution 1:50, available from AngioBio, US), vascular endothelium growth factor receptor 3 (VEGF R3) (dilution 1:50, available from Santa Cruz, US), E-selectin/CD62E (dilution 1:50, available from R&D systems, US), P-selectin/CD62P (dilution 1:50, available from R&D systems, US), vascular cell adhesion molecule (VCAM)-1/CD106 (dilution 1:50, available from R&D systems, US), and intercellular adhesion molecule (ICAM)-1/CD54 (dilution 1:50, available from R&D systems, US). Before the staining, permeabilization of the cultured cells with 0.1% TRITON-X was performed. Then, the cells were stained using the following antibodies: ALEXA FLUOR 488 chicken anti-rabbit IgG or ALEXA FLUOR 488 donkey anti-mouse IgG (available from Invitrogen, US). The nuclei of the cultured cells were counter-stained and mounted with ProLong Gold antifade reagent with 4′-6-diamidine-2-phenylindole (DAPI) (available from Molecular Probes, US). The cultured cells were examined by a fluorescent microscope (available from Leica, Germany) and photographed. […]
# [7] = test system: VCAM-1 on human LECs; assay: Immunohistochemical expression of VCAM-1 on cultured human LECs; settings: for staining with VCAM-1 on human LECs: 48 hrs. treatment with 100 ng/mL IL-6, 100 ng/mL VEGF-A, or 500 ng/mL VEGF-C; for expression of VCAM-1 on human LECs: 18 hrs.-stimulation with 10 ng/mL chemokine
# Protocol: as §1, §2, §3, §4
# [8] = test system: human LECs; assay: Proliferative ability of human LECs with lymphangiogenic factors
# [9] = 48 hrs. treatment with 100 ng/mL IL-6, 100 ng/mL VEGF-A, or 500 ng/mL VEGF-C
# [10] = 18 hrs.-stimulation with 10 ng/mL chemokine
molecule,measurement,setting,value
"C#CCn1c(=O)c2c(ncn2C)n(C)c1=O [DMPX, 3,7-dimethyl-1-propargyl xanthine]",effect on MDA-MB-231 supernatant-mediated expression of ICAM-1 on human LECs,[1],no significant effect
"CCCn1c(=O)c2[nH]c(C3CCCC3)nc2n(CCC)c1=O [DPCPX, 8-cyclopentyl-1,3-dipropylxanthine]",effect on MDA-MB-231 supernatant-mediated expression of ICAM-1 on human LECs,[1],no significant effect
Cc1ccc(C(=O)Nc2ccc(S(=O)(=O)O)c3cc(S(=O)(=O)O)cc(S(=O)(=O)O)c23)cc1NC(=O)c1cccc(NC(=O)Nc2cccc(C(=O)Nc3cc(C(=O)Nc4ccc(S(=O)(=O)O)c5cc(S(=O)(=O)O)cc(S(=O)(=O)O)c45)ccc3C)c2)c1 [suramin],effect on MDA-MB-231 supernatant-mediated increase of attachment of carcinoma cells to human LECs,[2]; 48 hrs. simultaneous treatment with 10^−6M suramin,significant reduction
same,effect on ATP-mediated increased attachment of carcinoma cells to LECs,"[2]; simultaneous treatment with 10^−6M suramin, 10^−7M ATP 48 hrs.",significantly reduced
same,effect on MDA-MB-231 supernatant-mediated expression of ICAM-1 on human LECs,[1],significant reduction
same,effect on ATP-mediated expression of ICAM-1 on LECs,"[3]; simultaneous treatment with 10^−7M or 10^−6M suramin, 10^−7M ATP, p<0.01, n=5",significant reduction
"IL-1β: interleukin-1β, stimulating factor",expression of F-actin (phalloidin-FITC fluorescence),[4],increase of expression of F-actin
IL-6: cytokine,staining by P-selectin antiserum on human LECs,[5],strongly stained
same,expression of E-selectin on human LECs,[6]; [9],No or little expression
same,staining with ICAM-1 on human LECs,[3],Slight staining
same,staining with VCAM-1 on human LECs,[7],Slight staining
VEGF,proliferative ability of the LECs,[8],Sthenia of proliferative ability
"basic-FGF: basic fibroblast growth factor, lymphangiogenic factor",proliferative ability of the LECs,[8],Sthenia of proliferative ability
B1,expression of E-selectin on human LECs,[6]; [10],Little or no expression
same,expression of ICAM-1 on human LECs,[3],slight staining
same,expression of VCAM-1 on human LECs,[7],Little or no expression
B2,expression of E-selectin on human LECs,[6]; [10],Little or no expression
same,expression of ICAM-1 on human LECs,[3],slight staining
same,expression of VCAM-1 on human LECs,[7],Little or no expression
B3,expression of E-selectin on human LECs,[6]; [10],Little or no expression
same,expression of ICAM-1 on human LECs,[3],slight staining
same,expression of VCAM-1 on human LECs,[7],Little or no expression
B4,staining by P-selectin antiserum on human LECs,[5],strongly stained
same,expression of E-selectin on human LECs,[6]; [9],No or little expression
same,staining with ICAM-1 on human LECs,[3],Slight staining
same,proliferative ability of the LECs,[8],Sthenia of proliferative ability
same,staining with VCAM-1 on human LECs,[7],Slight staining
